# According to the nanobody polyreactivity screen of Harvey et al. (2022):
# Test: yeast display, Sf9 membrane polyspecificity reagent, FACS + sequencing; frameworks hold sequencing errors
# Outline: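 In a synthetic yeast display library (Saccharomyces cerevisiae BJ5465), nanobody expression was induced with galactose for 36–48 hours. FACS gates were set low and high (top ~1%) using anti-HA fluorescence for expression and streptavidin fluorescence for binding of the Sf9 membrane reagent. Each polyreactivity label is drawn from the gate of origin.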
row,Sequence,polyreactivity (PSR sort gate)
1,QVQLVESGGGLVQAGGSLRLSCAASGSIFRVNDMGWYRQAPGKERELVAAISSNGDDTFYADSVKGRFTISRDNSKNTVYLQMNSLKPEDTAVYYCNAESPTYPDYFFKYTHYDYWGQGTQVTVSS,low polyreactivity
2,QVQLVESEGGLVQAGGSLRISCAASGRNFRTYDMGWYRQAPGKERELVAAISEEGGYTYYADSVKGRFTISRDNAKNTVYLQMNSLKPEDTAVYYCAKDRPGPLRWWFLYGYWGQGTQVTVSS,low polyreactivity
3,QVQHVESGGGLVQAGGSLRLSCAASGRILKPNAMGWYRPAPGKERELVAAIRWRGDITYYADSVKGRFTISRDNAKNTVYLQMNSLKPEDTAVYYCNARTYYRRQKYDYWGQGTKVTVSS,high polyreactivity
4,QVQLVESGGGLVQAGGSLRLSCAASGLTFLNKAMGWYREAPGKERELVAAISRGGSTNYADSVKGRFTISRDNAKNTVYLQMNSLKPQDTAGYYCAAQIFESAYGMDYWGQGTQVTVSS,low polyreactivity
5,QVQLVESGGGLVQAGGSLRISCAASGIILSDNAMGWYRQAPGKEREFVAAITGAGGSTYYADSVKGRFTISRDNAKNTVYLQMNSLKPEDTAVYYCAAESYPLSYSSATLSPSYEYWGQGTQVTVSS,low polyreactivity
6,QVQLVESGGGLVQAGGSLRLSCAASGSIFDHYAMGWYRQAPGKERELVAAITAICDSTYYADSVKGRFTISRDNAKNTVYLEKNSLKAEDTAVYYCAVTYGGSDGGDYWGQGTQGTVSS,low polyreactivity
7,QVQLVESGGGLVQAGGSLRLSCAASGLILSSNAMGWYRKAPGQERELVAAITWDGDRTYADSVKGRFTISRDNAKNTVYLQMNSLKPEDTAVYYCAARIGTGVLTGRGANSHMDYWGQGTQVTVSS,low polyreactivity
8,QVQLVESGGCLVQAGGSLRLSCAATGIIFDGYAMGWYRQAPGKERELVAAISWSGGSTYYADSVKGRFTISRDNAKNTVYLQMNSLKPEDTAVYYCAAALPGWYHDDYDYWGQGTQVTVSS,low polyreactivity
9,QVQLVESGGGLVQAGGSLRLSCAASGFIIIGYVMGWYRQAPGKERELVAAITSSGGSTYYADSVKGRFTISRDHAKNTVYLQMNSLKPEDTAVYYCAAEYYLLWSGMEYWGQGTQVTVSS,low polyreactivity
10,QVQLVESGGGLVQAGGSLRLSCAASGSTFPYYVMGWYRQAPGKERELVATITNSGGSTYYADSVKGRFTISRDNAKNTVYLQMNSLKPEDTAVYYCAAVYWYGLYHRYYYWGQGTQVTVSS,low polyreactivity
11,QVQLVESGGGLVQAGGSLRLSCAAYGSTFTSYAMGWYRQAPGKERELVAAISSSGTRTYYADSVKGRFTISRDNAKNTVYLQMNSLKPEDTAVYYCAKASPYSKLYYWGQGTQGTVSS,high polyreactivity
12,QVQLVESGGGLVQAGGSLRLSCAASGYRFERNAMGWYIQAPGKERELVAAITDDGDDTYYADSVKGRFTISRDNAKNTVYLQINSLKPEDYAVYYWAKDLYYGDYYYWGQGTQVTVSS,low polyreactivity
13,QVQLVESGGGLVQAGGSLRLSCAASGSTFGYYTMGWYRQAPGKERELVAAITWLGGRTYYADSVKGRFTISRDNAKNTVYLQMNSLKPEDTAVYYCAARSTVLMDYWGQGTQVTVSS,high polyreactivity
14,QVQLVESGGGLVQAGGSLRLSCAASGFIFYGYAMGWYRQAPGKERELVAGISTGGSTNYADSVKGRFTISRDNAKNTVYLQMNSLKPEDTAVYYCAKRAYFYYGRYDYWGQGTQVTVSS,low polyreactivity
15,QVQLVESGGGLVQAGGSLRLSCAASGFIFTYYDMGWYRQAPGKERELVASISWDGGRTYYADSVKGRFTISRDNAKNTVYLQMNSLKPEDTAVYYCAKRLGGSPIQARGDYWGQGTQVTVSS,low polyreactivity
16,QVQLVESGGGLVQAGGSLRLSCAASGIIFYPYTMGWYRQAPGKERELVAAINSGGSTYYADSVKGRFTISRDNAKNTVYLQMNSLKPEDTAVYYCAAEANRYSSGYDYWGQGTQVTVTS,low polyreactivity
17,QVQLVESGGGLVQAGGSLRLSCAASGFTFTWYAMGWYRQAPGKERELVASISRSGGSTYYADSVKGRFTISRDNAKNTVYLQMNSLKPEDTAVYYCAAEIWLEYVGYDYWGQGTQVTVSS,high polyreactivity
